Results on one molecule are retold here after patent publication US20170340734A1 (INSERM INSTITUT NATIONAL DE LA SANT ET DE LA RECHERCHE M …, published 2017).

The target of one test is T1, human AXL (human, UniProt P30530 26-449, limits assumed).
T1 construct: In the degradation, internalization and homodimerization experiments the receptor stood on the tumor cell surface; also called AXL receptor; human form of AXL
T1 sequence (looked up): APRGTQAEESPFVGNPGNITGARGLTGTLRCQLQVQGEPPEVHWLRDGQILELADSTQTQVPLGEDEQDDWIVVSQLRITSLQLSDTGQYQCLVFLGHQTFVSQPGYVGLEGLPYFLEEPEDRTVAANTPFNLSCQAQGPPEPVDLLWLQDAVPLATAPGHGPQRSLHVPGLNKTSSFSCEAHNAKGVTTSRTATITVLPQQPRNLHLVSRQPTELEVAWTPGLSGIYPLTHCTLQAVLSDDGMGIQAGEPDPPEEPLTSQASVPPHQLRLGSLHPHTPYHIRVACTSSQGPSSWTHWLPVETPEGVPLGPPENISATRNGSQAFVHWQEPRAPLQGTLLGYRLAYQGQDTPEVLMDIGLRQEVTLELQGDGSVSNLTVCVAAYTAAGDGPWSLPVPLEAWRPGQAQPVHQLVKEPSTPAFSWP
The test is described as follows: not described (FIG. 6).

For the next test, the target named is T2, murine AXL (murine, UniProt Q00993 19-443, limits assumed).
T2 construct: also called murine form of AXL
T2 sequence (looked up): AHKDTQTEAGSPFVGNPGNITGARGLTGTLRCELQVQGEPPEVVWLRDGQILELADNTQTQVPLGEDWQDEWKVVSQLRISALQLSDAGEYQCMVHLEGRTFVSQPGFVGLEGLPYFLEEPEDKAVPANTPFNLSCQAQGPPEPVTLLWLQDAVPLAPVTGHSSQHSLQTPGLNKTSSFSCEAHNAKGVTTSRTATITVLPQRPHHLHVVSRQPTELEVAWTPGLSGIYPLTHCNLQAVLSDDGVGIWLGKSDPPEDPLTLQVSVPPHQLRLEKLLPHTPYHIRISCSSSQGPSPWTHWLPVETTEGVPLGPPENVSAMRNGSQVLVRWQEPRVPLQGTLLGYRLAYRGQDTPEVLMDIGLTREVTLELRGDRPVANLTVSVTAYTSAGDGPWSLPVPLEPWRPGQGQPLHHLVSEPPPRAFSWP
The test can be described thus: not described (FIG. 6).

B1: human monoclonal antibody D4 (antibody, V domains shown)
VH: EVQLVESGGSLVKPGGSLRLSCAASGFTFSNYSMNWVRQAPGKGLEWISSISGSSRYIYYADFVKGRFTISRDNATNSLYLQMNSLRAEDTAVYYCVRGRKDSGTIYHWGRGTLVTVSS
VL: QSVLTQPASVSGSPGQSITISCAGTSSDVGGYNYVSWYQQHPGKAPKLMIYEDSKRPSGVSNRFSGSKSGNTASLTISGLQAEDEADYYCKKDDYSLRFTFGGGTKLAVLG
notes: also called D4 antibody; D4 human monoclonal antibody
As for B1, the binding result with human AXL and with murine AXL was “binds” throughout.
